{
  "source": "paper doi:10.1101/2023.10.06.561239",
  "about": "(bioRxiv, 2023)",
  "target": "T1, human DMC1, untagged, purified recombinant (human, UniProt Q14565 1-340)",
  "T1 sequence (looked up)": "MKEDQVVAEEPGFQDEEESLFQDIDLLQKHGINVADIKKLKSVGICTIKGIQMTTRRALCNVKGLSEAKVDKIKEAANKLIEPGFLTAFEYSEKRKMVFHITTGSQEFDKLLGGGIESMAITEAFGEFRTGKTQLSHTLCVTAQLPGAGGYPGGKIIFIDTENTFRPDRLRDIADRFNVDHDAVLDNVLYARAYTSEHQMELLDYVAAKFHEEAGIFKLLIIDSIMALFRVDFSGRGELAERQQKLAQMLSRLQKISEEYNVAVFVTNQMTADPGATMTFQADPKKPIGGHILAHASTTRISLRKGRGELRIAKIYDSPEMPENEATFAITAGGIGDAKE",
  "assay": "pull-down",
  "data": [
    {"binder": "human his-GST-TEV-BRCA2 F2s3 (aa 2379-2433), wild type (domain or fragment, UniProt P51587 2379-2433, looked up) GHPFYQVSATRNEKMRHLITTGRPTKVFVPPFKTKSHFHRVEQCVRNINLEENRQ", "values": [
      {"measurement": "binding result", "result": "binds"}
    ]}
  ]
}
